Where no end group is shown, it is not given here.
Target: endogenous VIP receptor of SUP-T1 cells (human)
Test: cell-based or functional assay

For HSDAVFTDNYTRLRKQMAVKKYLNSILN-NH2 [VIP(1-28)-NH2], the “cAMP Productivity in SUP-T1 Cells, Activity Intensity (%) relative to native VIP” value was 100%.

— US20130123460A1 (SANWA KAGAKU KENKYUSHO, published 2013)
